Results published in patent EP0501215B1.

Molecular target: CEA (Carcinoembryonic Antigen) (UniProt P06731)
Assay: competition ELISA on CEA-coated plates; competitor of murine MAK BW 431/26 (5 ng/ml)

UniProt P06731, sequence (P06731 35-685 limits assumed): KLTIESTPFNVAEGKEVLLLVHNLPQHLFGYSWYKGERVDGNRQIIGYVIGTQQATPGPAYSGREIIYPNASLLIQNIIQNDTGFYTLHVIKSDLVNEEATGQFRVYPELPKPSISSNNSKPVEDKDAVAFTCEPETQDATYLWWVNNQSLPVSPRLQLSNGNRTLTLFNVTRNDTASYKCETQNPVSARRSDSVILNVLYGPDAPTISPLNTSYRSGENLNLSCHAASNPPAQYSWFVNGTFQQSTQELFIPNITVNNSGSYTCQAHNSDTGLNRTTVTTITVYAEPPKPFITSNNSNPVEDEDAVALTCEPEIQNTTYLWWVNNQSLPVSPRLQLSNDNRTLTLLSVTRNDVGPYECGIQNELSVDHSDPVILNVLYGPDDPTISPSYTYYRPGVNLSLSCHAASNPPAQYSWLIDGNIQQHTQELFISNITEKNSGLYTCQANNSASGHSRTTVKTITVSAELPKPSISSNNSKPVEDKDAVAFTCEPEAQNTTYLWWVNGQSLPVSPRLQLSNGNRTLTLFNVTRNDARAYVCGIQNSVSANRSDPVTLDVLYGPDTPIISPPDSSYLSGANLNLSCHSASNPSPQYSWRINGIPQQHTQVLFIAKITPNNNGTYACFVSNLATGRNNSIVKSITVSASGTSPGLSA

## humanized MAK BW 431/26 (antibody)
  molar excess of competitor for 50 % inhibition: 200 molar excess
